Experimental data as given in patent publication US20130345115A1.

Tests used:
[1] = biological target: (Δ1-28) H4 nucleosome (mononucleosome with FLAG-HA-tagged tailless human H4 lacking the first 28 amino acids) (human; human (293T cells)) (UniProt P62805); test: MudPIT, co-purification
[2] = biological target: Wild type H4 nucleosome (mononucleosome with FLAG-HA-tagged wild type human H4) (human; human (293T cells)) (UniProt P62805); test: MudPIT, co-purification

Substance	amino acid coverage [1] [%]	peptide count [1] [peptides]	amino acid coverage [2] [%]	peptide count [2] [peptides]
ADP-ribosylation factor 1 (from UniProt P84077 2-181)	8.8	1	–	–
EuHMT1 (from UniProt Q9H9B1 2-1298) (enzyme)	–	0	5.7	3
H1 histone family, member 0 (H1F0) (from UniProt P07305 2-194)	16.2	2	21.2	3
Histone H2A	74.1	6	63.1	5
Histone H2B	59.4	5	54.7	5
Histone H3	89.6	7	82.6	6
RAD23 homolog B (S. cerevisiae) (from UniProt P54727 1-409)	8.9	1	–	–
RuvB-like 1 (E. coli) (from UniProt Q9Y265 1-456)	21.3	8	19.1	7
RuvB-like 2 (E. coli) (from UniProt Q9Y230 2-463)	16.3	8	13.4	5
SWI/SNF complex 170 KDa subunit (from UniProt Q8TAQ2 1-1214)	–	–	4.3	3
SWI/SNF related, matrix associated, actin dependent regulator of chromatin, subfamily a, member 1 (from UniProt P28370 1-1042)	19.2	9	24.9	11
SWI/SNF related, matrix associated, actin dependent regulator of chromatin, subfamily a, member 5 (from UniProt O60264 2-1052)	28.3	13	20	9
Snf2-related CREBBP activator protein (from UniProt Q6ZRS2 1-3230)	1.9	3	–	–
TATA box binding protein-associated factor, 135 kDa (from UniProt O00268 1-1085)	–	–	6.6	5
WD repeat domain 77 (from UniProt Q9BQA1 1-342)	11.4	2	–	–
X-ray repair complementing defective repair in Chinese hamster cells 5 (from UniProt P13010 2-732)	5.3	2	4.4	2
X-ray repair complementing defective repair in Chinese hamster cells 6 (from UniProt P12956 2-609)	3.2	1	5.7	2
anti-silencing function 1 homolog B (from UniProt Q9NVP2 1-202)	18.8	2	–	–
chromatin assembly factor 1, subunit A (from UniProt Q13111 1-956)	4.9	3	5.5	3
chromobox homolog 1 (HP1 beta homolog Drosophila) (from UniProt P83916 1-185)	22.8	3	17.3	2
chromobox homolog 3 (HP1 gamma homolog, Drosophila) (from UniProt Q13185 2-183)	14.7	2	13.2	2
chromobox homolog 5 (HP1 alpha homolog, Drosophila) (from UniProt P45973 1-191)	21.4	3	21.4	3
chromodomain helicase DNA binding protein 4 (from UniProt Q14839 1-1912)	0.6	1	1.2	2
damage-specific DNA binding protein 1, 127 kDa (from UniProt Q16531 2-1140)	3.7	2	5.4	3

Substance	amino acid coverage [1] [%]	peptide count [1] [peptides]	amino acid coverage [2] [%]	peptide count [2] [peptides]
death-domain associated protein (from UniProt Q9UER7 1-740)	2.4	1	–	–
euchromatic histone-lysine N-methyltransferase 2 (G9a) (from UniProt Q96KQ7 2-1210) (enzyme)	–	0	4	2
histone H2AX (from UniProt P16104 2-143)	8.4	1	13.7	2
histone cluster 1, H1a (HIST1H1A) (from UniProt Q02539 2-215)	11.8	2	11.2	2
histone cluster 1, H1b (HIST1H1B) (from UniProt P16401 2-226)	12.8	2	12.5	2
histone cluster 1, H1c (HIST1H1C) (from UniProt P16403 2-213)	12.3	2	10.3	2
histone cluster 1, H1d (HIST1H1D) (from UniProt P16402 2-221)	6.4	1	8.6	1
histone cluster 1, H1e (HIST1H1E) (from UniProt P10412 2-219)	11.8	2	6.2	1
histone deacetylase 1 (from UniProt Q13547 1-482) (enzyme)	–	0	12.9	5
macroH2A1.1 and macroH2A1.2 (from UniProt O75367 1-369)	48.2	10	55.1	11
mediator of DNA-damage checkpoint 1 (from UniProt Q14676 1-2089)	18.4	4	–	–
metal response element binding transcription factor 2 (from UniProt Q9Y483 1-593)	–	–	4.6	2
methyl CpG binding protein 2 (Rett syndrome) (from UniProt P51608 1-486)	3.1	1	12.3	5
nucleolin (from UniProt P19338 2-710)	16.3	8	12	6
poly (ADP-ribose) polymerase 1 (from UniProt P09874 2-1014) (enzyme)	44.2	23	41.3	21
protein arginine methyltransferase 5 (from UniProt O14744 2-637) (enzyme)	23.8	9	21.8	9
remodeling and spacing factor 1 (from UniProt Q96T23 1-1441)	11.7	10	12.2	12
structure specific recognition protein 1 (from UniProt Q08945 2-709)	11.9	7	15.8	9
suppressor of Ty 16 homolog (S. cerevisiae) (from UniProt Q9Y5B9 2-1047)	21.6	12	17.2	12
suppressor of zeste 12 homolog (Drosophila) (from UniProt Q15022 1-739)	1.4	1	5.1	3
thyroid hormone receptor-associated protein complex component (from UniProt Q9Y2W1 2-955)	–	–	3.4	2
topoisomerase (DNA) I (from UniProt P11387 2-765) (enzyme)	4.2	3	7.4	5
transcription factor 20 (AR1) (from UniProt Q9UGU0 1-1960)	–	–	2.4	3
